Consider 13 molecules from patent US7329737 (DYAX, dated 2008).

The target in test [1] is T1, hK1 (human tissue kallikrein 1), recombinant (human, UniProt P06870 25-262).
T1 construct: Expressed in P. pastoris from KLK1 cDNA and purified; enzymatically active; also called KLK1; Recombinant (Pichia) Kallikrein
The experiment in a line: SPR.

Test [2] addresses T1, hK1 (human tissue kallikrein 1), …. The test can be described thus: cell-based or functional assay.
Test [3] shares this target. The test can be described thus: SPR, biotinylated hK1 on streptavidin chip; Fab 50 nM after DX-2300 50 nM (competitor DX-2300).
Source text: Epitope grouping by SPR. Biotinylated hK1 was captured on a streptavidin coated chip to a final ligand density of 88 RU. […] The signal at the end of the injection of the Fab alone is R2.

B1: M0117-F04 (Fab, V domains shown)
VH: EVQLLESGGGLVQPGGSLRLSCAASGFTFSMYVMNWVRQAPGKGLEWVSRIGSSGGGTLYADSVKGRFTISRDNSKNTLYLQMNSLRAEDTAVYYCARVSVYRIRNYYYYAMDVWGQGTTVTVSS
VL: DIQMTQSPSSLSASVGDRVTITCRASQGIGNYLAWYQQKPGKAPNLLIYKTSNLQSGVPSRFRGSGSGTEFTLTITSVQPDDFATYFCQRYDSYSQYIFGQGTKLETKR
Consider B1, for which, in test [1], the Kd was 6.61 nM, the koff was 0.00197 s⁻¹ and the kon came out at 298000 M⁻¹ s⁻¹. The “IC50 (nM), inhibition of hK1 hydrolysis of Pro-Phe-Arg-AMC” value in test [2] is 5.2 nM. In addition, the “Fab Signal following DX-2300 (R1)” value in test [3] came out at 6.7.

B2: M0097-G01 (Fab, V domains shown)
VH: EVQLLESGGGLVQPGGSLRLSCAASGFTFSPYYMQWVRQAPGKGLEWVSGISSSGGSTQYADSVKGRFTISRDNSKNTLYLQMNSLRAEDTAVYYCARSQRRTYYPNFGDAFDIWGQGTMVTVSS
VL: DIQMTQSPSSLSASVGDRVTITCRASQGIGNYLVWYQHKPGNVPRVLIYAASTLQSGVPSRFRGSGSGTDFTLTISGLQPEDVATYYCQKYDGAPFTFGPGTKVDLKR
Turning to B2, in test [1], the Kd was 4.8 nM, the koff stood at 0.000832 s⁻¹ and the association rate constant (kon) was determined as 173000 M⁻¹ s⁻¹. The “IC50 (nM), inhibition of hK1 hydrolysis of Pro-Phe-Arg-AMC” value in test [2] came to 7.2 nM.

B3: M0139-E12 (Fab, V domains shown)
VH: EVQLLESGGGLVQPGGSLRLSCAASGFTFSWYSMNWVRQAPGKGLEWVSSIGPSGGGTKYADSVKGRFTISRDNSKNTLYLQMNSLRAEDTAVYYCASRGQRKQWLPPNGAFDIWGQGTMVTVSS
VL: DIQMTQSPSSVSASVGDRVTMTCRASRGISNWLAWYQQKPGKAPELLIHSASTLHAGVPSRFSGSGSGTDFTLTISSLQPGDFATYYCQEGNSFPYTFGQGTNLQIKR
B3: in test [1], the Kd was 1.87 nM, the koff is 0.000233 s⁻¹ and the kon came out at 125000 M⁻¹ s⁻¹. In test [2], the “IC50 (nM), inhibition of hK1 hydrolysis of Pro-Phe-Arg-AMC” value is 2.9 nM.

B4: M0136-E10 (Fab, V domains shown)
VH: EVQLLESGGGLVQPGGSLRLSCAASGFTFSPYNMAWVRQAPGKGLEWVSSIWPSGGRTRYADSVKGRFTISRDNSKNTLYLQMNSLRAEDTAVYYCAKGVRSSGLLERGRVYDAFDIWGQGTMVTVSS
VL: DIQMTQSPGTLSLSPGERATLSCRASQSVTTFLAWYQRKPGQAPRLLIYGASSRAADIPDRFSGSGSGTDFTLTISRLEPEDLAVYYCQQYRFSPPTFGPGTTVDIRR
As for B4, in test [1], the Kd came out at 9.66 nM, the koff came out at 0.00106 s⁻¹ and the kon stood at 110000 M⁻¹ s⁻¹. The “IC50 (nM), inhibition of hK1 enzyme activity” value in test [2] amounted to 22 nM.

B5: M0114-G06 (Fab, V domains shown)
VH: EVQLLESGGGLVQPGGSLRLSCAASGFTFSYYEMEWVRQAPGKGLEWVSSIRPSGGRTVYADSVKGRFTISRDNSKNTLYLQMNSLRAEDTAVYYCAKGRSNYYGSGSYSPKYFQHWGQGTLVTVSS
VL: DIQMTQSPSSLSASVGDRVTITCRASQGISSWLAWYQQRPERAPKSLIYAASSLERGVPSRFRGSGSGTDFTLTISSLQPEDFGTYYCQQYHNFPLTFGGGTRVEINR
Take B5: in test [1], the Kd was found to be 0.999 nM, the koff is 0.000166 s⁻¹ and the kon amounted to 167000 M⁻¹ s⁻¹. Besides, the “IC50 (nM), inhibition of hK1 hydrolysis of Pro-Phe-Arg-AMC” value in test [2] was found to be 1.2 nM. The “Fab Signal following DX-2300 (R1)” value in test [3] came out at 4.8.

B6: M0112-D07 (Fab, V domains shown)
VH: EVQLLESGGGLVQPGGSLRLSCAASGFTFSFYSMSWVRQAPGKGLEWVSRIRPSGGRTDYADSVKGRFTISRDNSKNTLYLQMNSLRAEDTAVYYCARDRLYYYGSGSYYYGAFDIWGQGTMVTVSS
VL: DIQMTQSPSSLSASVGDRVTITCRASQTIRTYLNWYQQKPGIAPKFLIYDASNLQTGVPSRFSGSGSGTHFTLTISSLQPEDFGTYYCQQSYGGPPTFGRGTKIEIKR
Turning to B6, in test [1], the Kd is 5.81 nM, the koff turned out to be 0.000781 s⁻¹ and the kon was 134000 M⁻¹ s⁻¹. In test [2], the “IC50 (nM), inhibition of hK1 enzyme activity” value is above 120 nM. Moreover, the “Fab Signal following DX-2300 (R1)” value in test [3] was determined as 3.

B7: M0098-E09 (Fab, V domains shown)
VH: EVQLLESGGGLVQPGGSLRLSCAASGFTFSRYGMQWVRQAPGKGLEWVSYIYPSGGGTVYADSVKGRFTISRDNSKNTLYLQMNSLRAEDTAVYYCARRVAVAGSWYYYYYGMDVWGQGTTVTVSS
VL: DIQMTQSPSSVSASVGDSVTISCWTIYDISSWLAWYQQRPGQAPKLLIYAASRLATGVPSRFRGSGSGTDFTLTITNLQPEDVATYYCQQTKDFPLTFGGGTRVDLKR
B7: in test [1], the Kd amounted to 1.91 nM, the koff turned out to be 0.00159 s⁻¹ and the kon was found to be 836000 M⁻¹ s⁻¹. Moreover, in test [2], the “IC50 (nM), inhibition of hK1 hydrolysis of Pro-Phe-Arg-AMC” value amounted to 2.5 nM. Moreover, in test [3], the “Fab Signal following DX-2300 (R1)” value was 8.5.

B8: M0102-H11 (Fab, V domains shown)
VH: EVQLLESGGGLVQPGGSLRLSCAASGFTFSKYPMTWVRQAPGKGLEWVSSISSSGGKTQYADSVKGRFTISRDNSKNTLYLQMNSLRAEDTAVYYCTRGGSSTLYFMDVWGQGTTVTVSS
VL: DIQMTQSPATLSLSPGERATLSCRASQSVSSYLAWYQQKPGQAPRLLIYGASSRATGIPDRFSGSGSGTDFTLTISSLEPEDFAVYYCQQRGGWPLTFGGGTKVEIRR
Take B8: in test [1], the Kd was found to be 3.24 nM, the koff worked out at 0.00741 s⁻¹ and the kon was 2.29e+06 M⁻¹ s⁻¹. Further, the “IC50 (nM), inhibition of hK1 hydrolysis of Pro-Phe-Arg-AMC” value in test [2] was found to be 4.5 nM.

B9: M0139-A09 (Fab, V domains shown)
VH: EVQLLESGGGLVQPGGSLRLSCAASGFTFSWYFMVWVRQAPGKGLEWVSGIGPSGGLTTYADSVKGRFTISRDNSKNTLYLQMNSLRAEDTAVYYCARSDWLNYWGQGTLVTVSS
VL: DIVMTQTPPSLPVNPGEPASISCRSSQSLVYSDGNTYLNWFQQRPGQSPRRLIYKVSNRDSGVPDRFSGSGSGTDFTLKISRVEAEDVGVYYCMQGTHWQRLTFGGGTKVEIKR
On to B9, for which, in test [1], the Kd worked out at 5.48 nM, the koff amounted to 0.00106 s⁻¹ and the kon came out at 194000 M⁻¹ s⁻¹. Moreover, in test [2], the “IC50 (nM), inhibition of hK1 enzyme activity” value came out at 34 nM. The “Fab Signal following DX-2300 (R1)” value in test [3] came out at 25.7.

B10: M0134-D07 (Fab, V domains shown)
VH: EVQLLESGGGLVQPGGSLRLSCAASGFTFSRYFMIWVRQAPGKGLEWVSSIVPSGGPTRYADSVKGRFTISRDNSKNTLYLQMNSLRAEDTAVYYCARRGPVYYYDSSGSHSAFDIWGQGTMVTVSS
VL: DIQMTQSPSSLSASVGDRVTITCRASQGIRNDLGWYQQKPGKAPKLLIYAASSLQSGVPSRFSGSGSGTDFTLTISSLQPEDFATYYCLQDYNYPRTFGQGTKVEIKR
On to B10, for which, in test [1], the Kd turned out to be 2.69 nM, the koff worked out at 0.000138 s⁻¹ and the kon came to 51300 M⁻¹ s⁻¹. Besides, the “IC50 (nM), inhibition of hK1 hydrolysis of Pro-Phe-Arg-AMC” value in test [2] was 10.1 nM. The “Fab Signal following DX-2300 (R1)” value in test [3] was 2.3.

B11: M0139-F04 (Fab, V domains shown)
VH: EVQLLESGGGLVQPGGSLRLSCAASGFTFSRYYMEWVRQAPGKGLEWVSSISSSGGSTEYADSVKGRFTISRDNSKNTLYLQMNSLRAEDTAVYYCAKDITPGGGSGFRLPKNYYYYGMDVWGQGTTVTVSS
VL: DIQMTQSPSSLSASVGDRVTITCRASQAISTNLNWYQQKPGKAPKLLIYAASSLQSGVPSRFIGSGSGTDFTLTISSLHPEDFATYHCQQTFSPPHTFGQGTKVEIQR
On to B11, for which, in test [1], the equilibrium dissociation constant (Kd) stood at 7.27 nM, the koff came to 0.00134 s⁻¹ and the on-rate constant (kon) was 184000 M⁻¹ s⁻¹. Moreover, the “IC50 (nM), inhibition of hK1 hydrolysis of Pro-Phe-Arg-AMC” value in test [2] worked out at 20.7 nM.

B12: M0102-G12 (Fab, V domains shown)
VH: EVQLLESGGGLVQPGGSLRLSCAASGFTFSKYKMVWVRQAPGKGLEWVSSIYPSGGITAYADSVKGRFTISRDNSKNTLYLQMNSLRAEDTAMYYCAKDITPGGGSGFRLPKNYYYYGMDVWGQGTTVTVSS
VL: AQSELTQPPSASGTPGQRVTISCSGTLSNIGTNIVSWFQQLPGTAPKLLIYNDHRRPSGVPDRFSGSKSATSASLAISGLQSEDEADYYCAAWDDSLNGVVFGGGTKLTVLS
Regarding B12, in test [1], the Kd was found to be 5.28 nM, the koff came out at 0.000442 s⁻¹ and the kon is 83700 M⁻¹ s⁻¹. In test [2], the “IC50 (nM), inhibition of hK1 hydrolysis of Pro-Phe-Arg-AMC” value was 3.3 nM.

B13: M0136-A07 (Fab, V domains shown)
VH: EVQLLESGGGLVQPGGSLRLSCAASGFTFSWYHMYWVRQAPGKGLEWVSYIRPSGGNTNYADSVKGRFTISRDNSKNTLYLQMNSLRAEDTAMYYCARDRRGYSSSKGYYYYGMDVWGQGTTVTVSS
VL: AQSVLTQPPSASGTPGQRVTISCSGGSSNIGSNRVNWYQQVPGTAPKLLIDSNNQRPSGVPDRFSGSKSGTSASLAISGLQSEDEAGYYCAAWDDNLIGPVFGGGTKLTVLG
notes: No HC-136-A07 entry is printed
For the molecule B13, in test [1], the Kd was 7.98 nM, the koff worked out at 0.00258 s⁻¹ and the kon turned out to be 323000 M⁻¹ s⁻¹. Besides, the “IC50 (nM), inhibition of hK1 enzyme activity” value in test [2] worked out at 25 nM. In addition, in test [3], the “Fab Signal following DX-2300 (R1)” value came out at 5.

In general, Kd refers to the equilibrium constant for the complex coming apart. The term koff denotes the rate constant with which the complex falls apart. The term kon denotes the rate constant with which the complex forms.
